The text below walks through data of patent US20250263697.

The target of data set [1] is NSP12 (RNA-dependent RNA polymerase) (SARS-CoV-2) (UniProt P0DTD1).
Data set [2] deals with NSP8 (primase) (SARS-CoV-2).
The test system of data set [3] is N (nucleocapsid) (SARS-CoV-2). As to conditions: eCLIP in infected Vero E6 cells.

With “SARS-CoV-2 genome 5' end, positive strand”, the binding signal in data set [1] was determined as 573 fold; in data set [2] it was 107 fold.
In the case of “SARS-CoV-2 genome 7436-7526, positive strand”, in data set [1], the binding signal stood at 13.7 fold.
The substance “SARS-CoV-2 genome 9602-9620, positive strand” gave a binding signal in data set [3] of 9.5 fold.
